Experimental data: patent publication US20180231560A1

Target: c-MET protein (Homo sapiens (Human)) (UniProt P08581)
Assay: immunomagnetic capture of spiked c-MET expressing cell lines by anti-c-MET ferrofluid

UniProt P08581, sequence (P08581 25-1390 limits assumed): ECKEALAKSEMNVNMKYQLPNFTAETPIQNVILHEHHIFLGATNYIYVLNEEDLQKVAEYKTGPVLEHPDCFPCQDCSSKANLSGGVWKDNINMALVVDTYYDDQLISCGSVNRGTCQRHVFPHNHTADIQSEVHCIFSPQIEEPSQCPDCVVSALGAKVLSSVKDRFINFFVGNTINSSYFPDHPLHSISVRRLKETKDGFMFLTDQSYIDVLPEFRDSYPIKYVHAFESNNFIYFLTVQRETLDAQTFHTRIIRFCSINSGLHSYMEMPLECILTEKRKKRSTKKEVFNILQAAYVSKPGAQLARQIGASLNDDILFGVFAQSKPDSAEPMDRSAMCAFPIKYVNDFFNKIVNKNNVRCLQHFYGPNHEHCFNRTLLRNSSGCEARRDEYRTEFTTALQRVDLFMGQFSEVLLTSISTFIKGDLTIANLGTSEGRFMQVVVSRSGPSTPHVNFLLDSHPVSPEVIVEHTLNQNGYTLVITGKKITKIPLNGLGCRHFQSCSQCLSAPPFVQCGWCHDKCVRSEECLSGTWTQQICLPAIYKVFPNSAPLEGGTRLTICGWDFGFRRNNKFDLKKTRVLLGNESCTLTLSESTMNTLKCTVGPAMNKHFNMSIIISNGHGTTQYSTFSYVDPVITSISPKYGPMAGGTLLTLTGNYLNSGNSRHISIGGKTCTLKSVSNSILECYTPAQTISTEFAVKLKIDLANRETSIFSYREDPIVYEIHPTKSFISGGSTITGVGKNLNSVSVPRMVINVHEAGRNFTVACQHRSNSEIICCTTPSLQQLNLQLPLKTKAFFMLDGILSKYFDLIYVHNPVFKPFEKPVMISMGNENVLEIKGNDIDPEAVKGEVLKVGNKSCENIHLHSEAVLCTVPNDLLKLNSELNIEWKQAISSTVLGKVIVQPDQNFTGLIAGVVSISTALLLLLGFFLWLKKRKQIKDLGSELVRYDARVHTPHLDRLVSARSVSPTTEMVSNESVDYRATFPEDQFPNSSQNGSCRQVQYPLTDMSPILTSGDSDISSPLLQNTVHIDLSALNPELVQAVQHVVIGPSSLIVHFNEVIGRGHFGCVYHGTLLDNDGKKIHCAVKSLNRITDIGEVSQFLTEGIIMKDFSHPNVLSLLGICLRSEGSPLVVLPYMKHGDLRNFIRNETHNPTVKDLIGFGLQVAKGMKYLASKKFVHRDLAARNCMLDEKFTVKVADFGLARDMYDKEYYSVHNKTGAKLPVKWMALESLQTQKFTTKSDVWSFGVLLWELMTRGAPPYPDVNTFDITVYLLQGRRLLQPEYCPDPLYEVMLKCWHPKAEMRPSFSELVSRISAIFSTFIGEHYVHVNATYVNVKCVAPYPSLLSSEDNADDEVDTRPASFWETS

recovery of c-MET cells: 20 to 40%
Substance: HGF R/c-MET Antibody clone L6E7 (Cell Signaling Technologies), as anti-c-MET ferrofluid
